According to patent US8541200B2, “Cleavage of fusion proteins using Granzyme B protease” (Hoffmann-La Roche Inc., priority 2003, dated 2013):
Numbering of substitutions follows the chain as printed. Entries after “also recorded” stand apart in the source; their conditions may differ.

How the values were obtained:
[1] = biological target: FXa (Bos taurus, UniProt P00743); experiment: Cleavage of fusion proteins by FXa, SDS PAGE; assay type: biochemical, bovine; details: protease:fusion protein 1:1000, 23° C.
FXa, sequence (P00743 234-492 limits assumed): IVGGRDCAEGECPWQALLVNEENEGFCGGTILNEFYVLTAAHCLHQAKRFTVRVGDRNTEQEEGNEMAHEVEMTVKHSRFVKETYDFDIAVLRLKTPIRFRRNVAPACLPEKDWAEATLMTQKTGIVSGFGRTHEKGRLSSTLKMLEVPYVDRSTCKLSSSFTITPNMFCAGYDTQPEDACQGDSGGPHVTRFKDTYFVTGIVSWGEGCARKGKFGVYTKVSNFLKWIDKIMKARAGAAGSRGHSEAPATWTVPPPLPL
FXa, sequence (P00743 41-180 partner limits assumed): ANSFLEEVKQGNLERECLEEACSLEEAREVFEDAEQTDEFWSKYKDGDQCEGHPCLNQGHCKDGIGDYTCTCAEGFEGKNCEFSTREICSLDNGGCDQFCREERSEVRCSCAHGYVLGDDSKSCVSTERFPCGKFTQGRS
Description: (§1) Both H6-IEPD-RAP (SEQ ID NO: 23) and H6-IEGR-RAP were in 100 mM HEPES pH 7.4 and the following incubations were set up at room temperature, 23° C., with the protease:fusion protein ratio 1:1000: • 1. […] 400 μl (app. 400 μg) H6-GrB-RAP+2 μl GrB-H6 (app. 0.4 μg)
250 μl (app. 400 μg) H6Ubi-IEPD-ApoA1+0.4 μg GrB-H6 C228F • 2.

[2] = Colorimetric Granzyme B activity assay with Ac-IEPD-pNA (absorbance at 405 nm); assay type: biochemical; details: for Granzyme B activity ΔOD405/min: pro-IEGR-GrB-H6 incubated with FXa at 4° C.; for completion of self-activation: 4° C., without addition of previously activated Granzyme B; for ΔOD405/min (self-activation): 100 mM HEPES pH 7.5
Description: GrB-H6 activity was measured using the following mix: 500 μl buffer, 2 μl 100 mM Ac-IEPD-pNA, and 5 μl GrB-H6.
Recombinant self-activating human Granzyme B derivatives IEPD-GrB-H6 and IEAD-GrB-H6 were produced as described in Example 2 by using the expression vectors pT7-IEPD-GrB-H6 and pT7-IEAD-GrB-H6 described in Example 1. The IEAD-GrB-H6 and IEPD-GrB-H6 proteins were eluted from the SP Sepharose columns and stored at 4° C. for 2 days before the activity of the respective top fractions were determined by using a colorimetric assay. For this purpose the following was mixed: 500 μl buffer (100 mM HEPES pH 7.5), 2 μl 100 mM Ac-IEPD-pNA, and 5 μl protein solution. The change in absorption was then determined at 405 nm during 3 min. The activity was further determined after additional incubation for 1 and 2 days at 4° C.
The activity of the activated and purified GrB-H6 was measured in different buffers using the Ac-IEPD-pNA substrate: 500 μl buffer, 2 μl 100 mM Ac-IEPD-pNA, and 5 μl GrB-H6. The ΔOD405/min was calculated from the first 0.75 min unless otherwise noted.

[3] = biological target: T1, GrB-H6 (Homo sapiens, UniProt P10144, R55Q); experiment: Cleavage of fusion proteins by GrB-H6, SDS PAGE; assay type: biochemical; details: for fusion protein cleaved at IEPD↓ and internal AQPD↓ site: 10 μl GrB-H6, no Ca^2+
T1 construct: MGSIEGR (N, cleaved yes); made in house; host or cells: E. coli BL21
Description: (§2) The fusion protein H6-TripUB IEPD↓SP (SEQ ID NO: 22) (prepared as described in Example 7) eluted from the Ni^2+-NTA-agarose column was gel filtrated into 100 mM HEPES pH 7.5 and 200 μl samples of the top-fraction was incubated at room temperature with either 0, 1 or 10 μl of activated GrB-H6 (approximately 0, 0.2 and 2 μg GrB-H6).
With the H6-TripUB IEPD↓SP (SEQ ID NO: 22) fusion protein the following nine incubations (Table 9) were set up using 200 μl H6-TripUB IEPD↓SP (SEQ ID NO: 22) and 5 μl GrB-H6 (approximately 1 μg GrB-H6) for each incubation.
as §2, with “H6-IEPD-RAP” for “H6-TripUB IEPD↓SP”, “23)” for “22)”, “7.4” for “7.5”, “GrB-H6). Samples for SDS PAGE were taken after 5, 23 and 26 hours of incubation, see FIG. 10.” for “GrB-H6).”
as §1
The fusion protein H6-IEPD-TN123 (SEQ ID NO: 25) (prepared as described in Example 7) eluted from the Q Sepharose was after final purification gel filtrated into 100 mM HEPES pH 7.5, and 200 μl samples of the top-fraction was incubated at room temperature with either 0, 1 or 10 μl of activated GrB-H6 (approximately 0, 0.2 and 2 μg GrB-H6) both with and without 5 mM CaCl2 present. Samples for SDS PAGE from the incubations without CaCl2 were taken after 12, 19 and 24 hours as well as 5 days of incubation. Samples for SDS PAGE from the incubations both with and without CaCl2 were taken after approximately 20 and 48 hours of incubation, see FIG. 14.
Each of the fusion proteins eluted from the Ni^2+-NTA-agarose column were gel filtrated into 100 mM HEPES pH 7.4 and fractions of approximately the same concentration of the five different H6-TripUB variants were used. The five variants were H6-TripUB IEPD↓SP (SEQ ID NO: 22), H6-TripUB IQAD↓SP (SEQ ID NO: 26), H6-TripUB IQAD↓SG (SEQ ID NO: 27), H6-TripUB VGPD↓SP (SEQ ID NO: 28) and H6-TripUB VGPD↓FG (SEQ ID NO: 29). Of each fusion protein 200 μl was incubated at room temperature, 23° C., with 5 μl of activated GrB-H6 (approximately 1 μg GrB-H6). The protease:fusion protein ratio was thereby 1:500.

H6-IEGR-RAP: FXa cleavable hexa-His RAP fusion protein with recognition sequence IEGR
correctly cleaved product left ([1]; 27 hours): no correctly cleaved product left
fusion protein correctly cleaved ([1]; ½ hour): almost all of the fusion protein has been cleaved

pro-IEGR-GrB-H6: pro-Granzyme B fusion protein with FXa recognition sequence IEGR and C-terminal hexa-His tag, SEQ ID NO:1
Granzyme B activity ΔOD405/min ([2]; 0 hours): 0.0073 ΔOD405/min
Granzyme B activity ΔOD405/min ([2]; 2 hours): 0.0200 ΔOD405/min
Granzyme B activity ΔOD405/min ([2]; 5 hours): 0.0250 ΔOD405/min
Granzyme B activity ΔOD405/min ([2]; 19 hours): 0.0829 ΔOD405/min
Granzyme B activity ΔOD405/min ([2]; 2 days (45 hours)): 0.1325 ΔOD405/min
Granzyme B activity ΔOD405/min ([2]; 5 days (120 hours)): 0.1832 ΔOD405/min

B1: H6-IEPD-TN123: hexa-His Tetranectin (TN123) fusion protein with Granzyme B recognition site IEPD, SEQ ID NO. 25 (protein)
chain: MGSHHHHHHGSIEPDGEPPTQKPKKIVNAKKDVVNTKMFEELKSRLDTLAQEVALLKEQQALQTVCLKGTKVHMKCFLAFTQTKTFHEASEDCISRGGTLSTPQTGSENDALYEYLRQSVGNEAEIWLGLNDMAAEGTWVDMTGARIAYKNWETEITAQPDGGKTENCAVLSGAANGKWFDKRCRDQLPYICQFGIV
modifications: H6-IEPD-TN123
internal cleavage at AQPD↓ site ([3]; 5 mM Ca^2+ added): no internal cleavage is observed
fusion protein cleaved at IEPD↓ and internal AQPD↓ site ([3]; 2 days): almost all the fusion protein has been cleaved twice
fusion protein cleaved at IEPD↓ and internal AQPD↓ site ([3]; 5 days): almost all of the fusion protein has been cleaved twice
fusion protein correctly cleaved ([3]; 200 μl fusion protein + 10 μl GrB-H6, 5 mM Ca^2+, 12 hours): approximately 40%
sites cleaved ([3]; no Ca^2+ present): cleaved correctly at the IEPD sequence, but also just as rapidly at an internal site of the sequence AQPD

B2: IEPD-GrB-H6: self-activating human pro-Granzyme B with IEPD recognition site and C-terminal H6, SEQ ID NO:2 (protein)
chain: MGSIEPDIIGGHEAKPHSRPYMAYLMIWDQKSLKRCGGFLIQDDFVLTAAHCWGSSINVTLGAHNIKEQEPTQQFIPVKRPIPHPAYNPKNFSNDIMLLQLERKAKRTRAVQPLRLPSNKAQVKPGQTCSVAGWGQTAPLGKHSHTLQEVKMTVQEDRKCESDLRHYYDSTIELCVGDPEIKKTSFKGDSGGPLVCNKVAQGIVSYGRNNGMPPRACTKVSSFVHWIKKTMKRYLNSHHHHHH
modifications: C-terminal His6 tag; pro-IEPD-GrB-H6
completion of self-activation [2]: not completed until after a least three or four days
ΔOD405/min (self-activation) ([2]; stored at 4° C. 2 days): 0.1284 ΔOD405/min
ΔOD405/min (self-activation) ([2]; stored at 4° C. 3 days): 0.1375 ΔOD405/min
ΔOD405/min (self-activation) ([2]; stored at 4° C. 4 days): 0.1351 ΔOD405/min

B3: IEAD-GrB-H6: self-activating human pro-Granzyme B with IEAD recognition site and C-terminal H6, SEQ ID NO:3 (protein)
chain: B2 chain with P6A
modifications: pro-IEAD-GrB-H6
completion of self-activation [2]: not completed until after a least three or four days
ΔOD405/min (self-activation) ([2]; stored at 4° C. 2 days): 0.1372 ΔOD405/min
ΔOD405/min (self-activation) ([2]; stored at 4° C. 3 days): 0.1607 ΔOD405/min
ΔOD405/min (self-activation) ([2]; stored at 4° C. 4 days): 0.1983 ΔOD405/min

B4: H6-IEPD-RAP: hexa-His RAP fusion protein with Granzyme B recognition site IEPD, SEQ ID NO. 23 (protein)
chain: MGSHHHHHHGSIEPDYSREKNQPKPSPKRESGEEFRMEKLNQLWEKAQRLHLPPVRLAELHADLKIQERDELAWKKLKLDGLDEDGEKEARLIRNLNVILAKYGLDGKKDARQVTSNSLSGTQEDGLDDPRLEKLWHKAKTSGKFSGEELDKLWREFLHHKEKVHEYNVLLETLSRTEEIHENVISPSDLSDIKGSVLHSRHTELKEKLRSINQGLDRLRRVSHQGYSTEAEFEEPRVIDLWDLAQSANLTDKELEAFREELKHFEAKIEKHNHYQKQLEIAHEKLRHAESVGDGERVSRSREKHALLEGRTKELGYTVKKHLQDLSGRISRARHNEL
modifications: H6-IEPD-RAP
GrB-sensitive sites in RAP ([3]; 19 possible sites (19 Asp residues)): only one GrB-sensitive site
fusion protein cleaved ([3]; 200 μl fusion protein + 1 or 10 μl GrB-H6, room temperature, 5 hours): all the H6-IEPD-RAP (SEQ ID NO: 23) has been cleaved to give the final product; also recorded: all the H6-IEPD-RAP (SEQ ID NO: 23) was cleaved to give the final product
fusion protein correctly cleaved ([3]; protease:fusion protein 1:1000, 23° C., ½ hour): nearly all the H6-IEPD-RAP (SEQ ID NO: 23) has been cleaved correctly
